In publication PMC6194859 one finds Kd data, which are given here for 2 sequences.

In this data set the target is T1, PhoB~P (phosphorylated PhoB) (Escherichia coli) (UniProt P0AFJ5).
T1 sequence: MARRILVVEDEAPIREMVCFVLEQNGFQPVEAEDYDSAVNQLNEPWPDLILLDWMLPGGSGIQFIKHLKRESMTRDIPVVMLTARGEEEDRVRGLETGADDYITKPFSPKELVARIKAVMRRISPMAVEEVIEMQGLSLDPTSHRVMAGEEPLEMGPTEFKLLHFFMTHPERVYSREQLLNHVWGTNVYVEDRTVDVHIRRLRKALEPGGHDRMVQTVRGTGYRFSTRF
The experiment in a line: EMSA. Conditions: phosphoramidate-phosphorylated PhoB, 50 mM Tris pH 7.6, 200 mM NaCl, 0.1 mg/ml BSA, 2 mM MgCl2, 1 mM DTT, 5% glycerol, ~0.1 uM DNA (mM in the source), 15 uM nonfluorescent competitor dsDNA, 30 min, 12% ….

For orientation: Kd means the equilibrium constant for the complex coming apart. A lower Kd goes with tighter binding.

“CTGCAGGAAGAAGGAAAACGCTGGTTTGACAATCTTGCCGCTAACGGAAAAATCGAAATGGCCTGGCAGGAAACTTTCTGGGCGCATGGCTTTGGCAAAGTCACCGATAAATTTGGCGTACCGTGGATGATTAATGTCGTCAAACAACAACCAACGCAATAACCCGCCGGGAGGCCCGCCCTCCCGCACTGTCATCGAATTCCCGTTAACTCTTCATCTGTTAGTCACTTTTAATTAACCAAATCGTCACAATAATCCGCCACGATGGAGCCACTTTTTTAGGGAGGCTGCATCATGCAAACGATTTGATCTAGAAATAATTTTGTTTAACTTTAAGAAGGAGATATACAAATGGTGAGC (double strand) [phnC promoter]” came in with a Kd (Hill fit) of 0.0017 mM.

Consider “GCCACGGAAATCAATAACCTGAAGATATGTGCGACGAGCTTTTCATAAATCTGTCATAAATCTGACGCATAATGACGTCGCATTAATGATCGCAACCTATTTATTACAACAGGGCTGATCTAGAAATAATTTTGTTTAACTTTAAGAAGGAGATATACAAATGGTGAGC (double strand) [phoB promoter]”, for which the Kd (two-site per DNA binding model) came out at 0.00025 mM.
